Data on 1 protein can be found in PMC12316734, “Lipase Activation by Poly(Methyl Methacrylate) in Dispersed Solution: Mechanistic Insights by Fluorescence Spectroscopy” (Applied Biochemistry and Biotechnology, 2025).

This series deals with the molecule itself. Put plainly: fluorescence correlation spectroscopy; 15 nM Atto 488-labelled TLL plus non-labelled TLL to 500 nM, no PMMA, broad-range buffer (succinic acid/NaH2PO4/glycine), pH 7 and pH 5; mean diffusion constant compared with the value predicted for the monomer (Hullrad).

B1: Thermomyces lanuginosus lipase (enzyme, UniProt O59952 23-291, looked up)
chain: EVSQDLFNQFNLFAQYSAAAYCGKNNDAPAGTNITCTGNACPEVEKADATFLYSFEDSGVGDVTGFLALDNTNKLIVLSFRGSRSIENWIGNLNFDLKEINDICSGCRGHDGFTSSWRSVADTLRQKVEDAVREHPDYRVVFTGHSLGGALATVAGADLRGNGYDIDVFSYGAPRVGNRAFAEFLTVQTGGTLYRITHTNDIVPRLPPREFGYSHSSPEYWIKSGTLVPVTRNDIVKIEGIDATGGNNQPNIPDIPAHLWYFGLIGTCL
modifications: Atto 488 coupled unspecifically to amines via NHS-ester (15 nM labelled protein, non-labelled enzyme added to 500 nM)
notes: Thermomyces lanuginosus lipase (TLL), commercial enzyme preparation; The PDB entries were used only for computational surface analysis; also called TLL; Atto 488-TLL; source: gift from ASA Spezialenzyme GmbH (Wolfenbüttel, Germany), desalted (HiTrap Desalting) before use
As for B1, the “stoichiometry N” value is 2.

What is called stoichiometry N is the number of molecules, sites or subunits per partner or assembly.
